PMC3494860 (The Journal of Cell Biology, 2012)

Molecular target: T1, GST-PATJ (Drosophila melanogaster, UniProt Q9NB04 1-871)
T1 sequence (looked up): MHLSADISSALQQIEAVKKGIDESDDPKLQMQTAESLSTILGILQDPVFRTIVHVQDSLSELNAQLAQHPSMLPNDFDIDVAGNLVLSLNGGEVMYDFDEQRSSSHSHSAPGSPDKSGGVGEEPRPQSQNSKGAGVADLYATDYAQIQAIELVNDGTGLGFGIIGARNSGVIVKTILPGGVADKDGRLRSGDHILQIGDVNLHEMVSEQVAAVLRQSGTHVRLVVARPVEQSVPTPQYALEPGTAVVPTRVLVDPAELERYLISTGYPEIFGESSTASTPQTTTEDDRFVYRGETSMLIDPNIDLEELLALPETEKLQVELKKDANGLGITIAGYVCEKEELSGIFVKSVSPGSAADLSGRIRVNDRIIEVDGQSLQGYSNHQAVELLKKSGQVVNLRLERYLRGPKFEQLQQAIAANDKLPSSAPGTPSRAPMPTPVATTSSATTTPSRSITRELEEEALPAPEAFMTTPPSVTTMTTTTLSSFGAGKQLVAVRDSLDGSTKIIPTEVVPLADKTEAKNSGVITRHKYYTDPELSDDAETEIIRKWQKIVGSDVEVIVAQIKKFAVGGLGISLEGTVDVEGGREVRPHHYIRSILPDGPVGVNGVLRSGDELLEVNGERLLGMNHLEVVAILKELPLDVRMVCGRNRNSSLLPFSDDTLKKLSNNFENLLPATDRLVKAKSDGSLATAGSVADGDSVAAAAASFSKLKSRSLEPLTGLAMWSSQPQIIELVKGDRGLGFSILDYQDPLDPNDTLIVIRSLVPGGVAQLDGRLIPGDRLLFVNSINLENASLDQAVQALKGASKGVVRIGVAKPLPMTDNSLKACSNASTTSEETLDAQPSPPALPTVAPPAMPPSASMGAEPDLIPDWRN
Test: pull-down

binding result: binds
B1: MBP-Sqh (natural protein, Drosophila melanogaster, UniProt P40423 1-174, looked up)
chain: MSSRKTAGRRATTKKRAQRATSNVFAMFDQAQIAEFKEAFNMIDQNRDGFVEKEDLHDMLASLGKNPTDDYLDGMMNEAPGPINFTMFLTLFGERLQGTDPEDVIKNAFGCFDEENMGVLPEDRLRELLTTMGDRFTDEDVDEMYREAPIKNGLFDYLEFTRILKHGAKDKDEQ
